{
  "source": "patent EP3470426A1",
  "about": "(Numab Therapeutics AG, dated 2019)",
  "test_in_all_cases": "cell-based or functional assay",
  "key": {"[1]": {"biological_target": "T1, CD137 on Jurkat NFkB reporter cells (human, UniProt Q07011 24-255)"}, "human PD-L1 on cells": {"biological_target": "human PD-L1 on cells (human, UniProt Q9NZQ7 19-290)"}, "[2]": {"biological_target": "T1, CD137 on Jurkat NFkB reporter cells", "remark": "listed apart in the source"}, "[3]": {"biological_target": "T1, CD137 on Jurkat NFkB reporter cells", "remark": "listed apart in the source"}, "[4]": {"biological_target": "T1, CD137 on Jurkat NFkB reporter cells", "remark": "listed apart in the source"}},
  "data": [
    {"binder": "PRO963 (other) DIQMTQSPSSLSASVGDRVTITCQASQSINDYLAWYQQKPGKAPKLLIYKASTLASGVPSRFSGSGSGTDFTLTISSLQPEDFATYYCQQGYIITDIDNVFGTGTKVTVLGGGGGSQVQLQESGPGLVKPSETLSLTCKVSGFSFSNSYWICWIRQPPGKGLEWIGCTFVGSSDSTYYANWAKGRVTISVDSSKNQFSLKLSSVTAADTAVYYCARHPSDAVYGYANNLWGQGTLVTVSSGGGGSGGGGSGGGGSGGGGSIQMTQSPSSLSASVGDRVTITCQASQSINNVLAWYQQKPGKAPKLLIYRASTLASGVPSRFSGSGSGTDFTLTISSLQPEDFATYYCQSSYGNYGDFGTGTKVTVLGGGGGSQVQLQESGPGLVKPSETLSLTCKVSGFSFSSGYDMCWIRQPPGKGLEWIGCVVAGSVDITYYASWAKGRVTISVDSSKNQFSLKLSSVTAADTAVYYCARKDAYSDAFNLWGQGTLVTVSSGGGGSGGGGSIQMTQSPSSLSASVGDRVTITCQSSESVYSNNQLSWYQQKPGQPPKLLIYDASDLASGVPSRFSGSGSGTDFTLTISSLQPEDFATYYCAGGFSSSSDTAFGGGTKLTVLGGGGGSGGGGSGGGGSGGGGSEVQLVESGGGLVQPGGSLRLSCAASGFSLSSNAMGWVRQAPGKGLEYIGIISVGGFTYYASWAKGRFTISRDNSKNTVYLQMNSLRAEDTATYFCARDRHGGDSSGAFYLWGQGTLVTVSS", "values": [
      {"measurement": "max. activation (%), NF-kB reporter, CHO-PD-L1, HSA yes, 24h", "setting": "[1]", "result": 369, "unit": "%"},
      {"measurement": "IC50, NFAT-luciferase reporter gene assay, with HSA", "setting": "human PD-L1 on cells", "result": 0.275, "unit": "µg/mL"}
    ]},
    {"binder": "PRO1060 (bispecific antibody, human IgG1, kappa, L234A L235A) light: DIQMTQSPSSLSASVGDRVTITCQASQSINDYLAWYQQKPGKAPKLLIYKASTLASGVPSRFSGSGSGTDFTLTISSLQPEDFATYYCQQGYIITDIDNVFGTGTKVTVLGTVAAPSVFIFPPSDEQLKSGTASVVCLLNNFYPREAKVQWKVDNALQSGNSQESVTEQDSKDSTYSLSSTLTLSKADYEKHKVYACEVTHQGLSSPVTKSFNRGEC heavy: QVQLQESGPGLVKPSETLSLTCKVSGFSFSSGYDMCWIRQPPGKGLEWIGCVVAGSVDITYYASWAKGRVTISVDSSKNQFSLKLSSVTAADTAVYYCARKDAYSDAFNLWGQGTLVTVSSASTKGPSVFPLAPSSKSTSGGTAALGCLVKDYFPEPVTVSWNSGALTSGVHTFPAVLQSSGLYSLSSVVTVPSSSLGTQTYICNVNHKPSNTKVDKRVEPKSCDKTHTCPPCPAPEAAGGPSVFLFPPKPKDTLMISRTPEVTCVVVDVSHEDPEVKFNWYVDGVEVHNAKTKPREEQYNSTYRVVSVLTVLHQDWLNGKEYKCKVSNKALGAPIEKTISKAKGQPREPQVYTLPPSREEMTKNQVSLTCLVKGFYPSDIAVEWESNGQPENNYKTTPPVLDSDGSFFLYSKLTVDKSRWQQGNVFSCSVMHEALHNHYTQKSLSLSPGKGGGGSGGGGSIQMTQSPSSLSASVGDRVTITCQASQSINNVLAWYQQKPGKAPKLLIYRASTLASGVPSRFSGSGSGTDFTLTISSLQPEDFATYYCQSSYGNYGDFGTGTKVTVLGGGGGSGGGGSGGGGSGGGGSQVQLQESGPGLVKPSETLSLTCKVSGFSFSNSYWICWIRQPPGKGLEWIGCTFVGSSDSTYYANWAKGRVTISVDSSKNQFSLKLSSVTAADTAVYYCARHPSDAVYGYANNLWGQGTLVTVSS", "values": [
      {"measurement": "EC50, NFkB-luciferase reporter, PD-L1 expressing CHO cells, 24h", "setting": "[2]", "result": 0.0808, "unit": "µg/mL"},
      {"measurement": "EC50, NFkB-luciferase reporter, HCC827 with IFNy stimulation, 24h", "setting": "[3]", "result": 0.0175, "unit": "µg/mL"},
      {"measurement": "EC50, NFkB-luciferase reporter, HCC827 without IFNy stimulation, 24h", "setting": "[3]", "result": 0.0136, "unit": "µg/mL"},
      {"measurement": "EC50, NFkB-luciferase reporter, PD-L1 expressing CHO cells, 6h", "setting": "[4]", "result": 0.0564, "unit": "µg/mL"},
      {"measurement": "IC50, NFAT-luciferase reporter gene assay", "setting": "human PD-L1 on cells", "result": 0.133, "unit": "µg/mL"}
    ]},
    {"binder": "PRO1058 (other) DIQMTQSPSSLSASVGDRVTITCQASQSINDYLAWYQQKPGKAPKLLIYKASTLASGVPSRFSGSGSGTDFTLTISSLQPEDFATYYCQQGYIITDIDNVFGTGTKVTVLGGGGGSQVQLQESGPGLVKPSETLSLTCKVSGFSFNNDYDMCWIRQPPGKGLEWIGCIDTGDGSTYYASWAKGRVTISVDSSKNQFSLKLSSVTAADTAVYYCAREAASSSGYGMGYFDLWGQGTLVTVSSGGGGSGGGGSGGGGSGGGGSIQMTQSPSSLSASVGDRVTITCQSSQSVYDNNWLAWYQQKPGKAPKLLIYRASNLASGVPSRFSGSGSGTDFTLTISSLQPEDFATYYCQGTYLSSNWYWAFGTGTKVTVLGGGGGSQVQLQESGPGLVKPSETLSLTCKVSGFSFSSGYDMCWIRQPPGKGLEWIGCVVAGSVDITYYASWAKGRVTISVDSSKNQFSLKLSSVTAADTAVYYCARKDAYSDAFNLWGQGTLVTVSSGGGGSGGGGSVVMTQSPSSLSASVGDRVTITCQASQIISSRSAWYQQKPGQPPKLLIYQASKLASGVPSRFSGSGSGTDFTLTISSLQPEDFATYYCQCTYIDSNFGAFGGGTKLTVLGGGGGSGGGGSGGGGSGGGGSEVQLVESGGGLVQPGGSLRLSCAASGFSFSSSYWICWVRQAPGKGLEWVGCVFTGDGTTYYASWAKGRFTISRDNSKNTVYLQMNSLRAEDTATYFCARPVSVYYYGMDLWGQGTLVTVSS", "values": [
      {"measurement": "EC50, NFkB-luciferase reporter, PD-L1 expressing CHO cells, 24h, + HSA", "setting": "[2]", "result": 0.121, "unit": "µg/mL"},
      {"measurement": "max. activation (%), NF-kB reporter, CHO-PD-L1, HSA yes, 24h", "setting": "[1]", "result": 36.2, "unit": "%"},
      {"measurement": "EC50, NFkB-luciferase reporter, PD-L1 expressing CHO cells, 6h, + HSA", "setting": "[4]", "result": 0.0709, "unit": "µg/mL"}
    ]},
    {"binder": "PRO1013 (scFv) scFv: DIQMTQSPSSLSASVGDRVTITCQASQSIGTYLAWYQQKPGKAPKLLIYRAFILASGVPSRFSGSGSGTDFTLTISSLQPEDFATYYCQSNFYSDSTTIGPNAFGTGTKVTVLGGGGGSGGGGSGGGGSGGGGSQVQLVQSGAEVKKPGASVKVSCKASGFSFNSDYWIYWVRQAPGQGLEWMGSIYGGSSGNTQYASWAQGRVTMTRDTSISTAYMELSSLRSEDTAVYYCARGYVDYGGATDLWGQGTLVTVSS", "values": [
      {"measurement": "IC50, NFAT-luciferase reporter gene assay", "setting": "human PD-L1 on cells", "result": 0.0213, "unit": "µg/mL"}
    ]},
    {"binder": "PRO1059 (bispecific antibody, human IgG1, kappa, L234A L235A) light: DIQMTQSPSSLSASVGDRVTITCQASQSINDYLAWYQQKPGKAPKLLIYKASTLASGVPSRFSGSGSGTDFTLTISSLQPEDFATYYCQQGYIITDIDNVFGTGTKVTVLGTVAAPSVFIFPPSDEQLKSGTASVVCLLNNFYPREAKVQWKVDNALQSGNSQESVTEQDSKDSTYSLSSTLTLSKADYEKHKVYACEVTHQGLSSPVTKSFNRGECGGGGSGGGGSIQMTQSPSSLSASVGDRVTITCQASQSINNVLAWYQQKPGKAPKLLIYRASTLASGVPSRFSGSGSGTDFTLTISSLQPEDFATYYCQSSYGNYGDFGTGTKVTVLGGGGGSGGGGSGGGGSGGGGSQVQLQESGPGLVKPSETLSLTCKVSGFSFSNSYWICWIRQPPGKGLEWIGCTFVGSSDSTYYANWAKGRVTISVDSSKNQFSLKLSSVTAADTAVYYCARHPSDAVYGYANNLWGQGTLVTVSS heavy: QVQLQESGPGLVKPSETLSLTCKVSGFSFSSGYDMCWIRQPPGKGLEWIGCVVAGSVDITYYASWAKGRVTISVDSSKNQFSLKLSSVTAADTAVYYCARKDAYSDAFNLWGQGTLVTVSSASTKGPSVFPLAPSSKSTSGGTAALGCLVKDYFPEPVTVSWNSGALTSGVHTFPAVLQSSGLYSLSSVVTVPSSSLGTQTYICNVNHKPSNTKVDKRVEPKSCDKTHTCPPCPAPEAAGGPSVFLFPPKPKDTLMISRTPEVTCVVVDVSHEDPEVKFNWYVDGVEVHNAKTKPREEQYNSTYRVVSVLTVLHQDWLNGKEYKCKVSNKALGAPIEKTISKAKGQPREPQVYTLPPSREEMTKNQVSLTCLVKGFYPSDIAVEWESNGQPENNYKTTPPVLDSDGSFFLYSKLTVDKSRWQQGNVFSCSVMHEALHNHYTQKSLSLSPGK", "values": [
      {"measurement": "IC50, NFAT-luciferase reporter gene assay", "setting": "human PD-L1 on cells", "result": 0.0938, "unit": "µg/mL"}
    ]},
    {"binder": "PRO830 (scFv) scFv: DIQMTQSPSSLSASVGDRVTITCQASQSINDYLAWYQQKPGKAPKLLIYKASTLASGVPSRFSGSGSGTDFTLTISSLQPEDFATYYCQQGYIITDIDNVFGTGTKVTVLGGGGGSGGGGSGGGGSGGGGSQVQLQESGPGLVKPSETLSLTCKVSGFSFSSGYDMCWIRQPPGKGLEWIGCVVAGSVDITYYASWAKGRVTISVDSSKNQFSLKLSSVTAADTAVYYCARKDAYSDAFNLWGQGTLVTVSS", "values": [
      {"measurement": "IC50, NFAT-luciferase reporter gene assay", "setting": "human PD-L1 on cells", "result": 0.0429, "unit": "µg/mL"}
    ]},
    {"binder": "PRO1057 (other) DIQMTQSPSSLSASVGDRVTITCQASQSINDYLAWYQQKPGKAPKLLIYKASTLASGVPSRFSGSGSGTDFTLTISSLQPEDFATYYCQQGYIITDIDNVFGTGTKVTVLGGGGGSQVQLQESGPGLVKPSETLSLTCKVSGFSFSNSYWICWIRQPPGKGLEWIGCTFVGSSDSTYYANWAKGRVTISVDSSKNQFSLKLSSVTAADTAVYYCARHPSDAVYGYANNLWGQGTLVTVSSGGGGSGGGGSGGGGSGGGGSIQMTQSPSSLSASVGDRVTITCQASQSINNVLAWYQQKPGKAPKLLIYRASTLASGVPSRFSGSGSGTDFTLTISSLQPEDFATYYCQSSYGNYGDFGTGTKVTVLGGGGGSQVQLQESGPGLVKPSETLSLTCKVSGFSFSSGYDMCWIRQPPGKGLEWIGCVVAGSVDITYYASWAKGRVTISVDSSKNQFSLKLSSVTAADTAVYYCARKDAYSDAFNLWGQGTLVTVSSGGGGSGGGGSVVMTQSPSSLSASVGDRVTITCQASQIISSRSAWYQQKPGQPPKLLIYQASKLASGVPSRFSGSGSGTDFTLTISSLQPEDFATYYCQCTYIDSNFGAFGGGTKLTVLGGGGGSGGGGSGGGGSGGGGSEVQLVESGGGLVQPGGSLRLSCAASGFSFSSSYWICWVRQAPGKGLEWVGCVFTGDGTTYYASWAKGRFTISRDNSKNTVYLQMNSLRAEDTATYFCARPVSVYYYGMDLWGQGTLVTVSS", "values": [
      {"measurement": "EC50, NFkB-luciferase reporter, PD-L1 expressing CHO cells, 24h, + HSA", "setting": "[2]", "result": 0.792, "unit": "µg/mL"},
      {"measurement": "EC50, NFkB-luciferase reporter, HCC827 with IFNy stimulation, 24h, +HSA", "setting": "[3]", "result": 0.115, "unit": "µg/mL"},
      {"measurement": "EC50, NFkB-luciferase reporter, HCC827 without IFNy stimulation, 24h, +HSA", "setting": "[3]", "result": 0.0766, "unit": "µg/mL"},
      {"measurement": "max. activation (%), NF-kB reporter, CHO-PD-L1, HSA yes, 24h", "setting": "[1]", "result": 663, "unit": "%"},
      {"measurement": "EC50, NFkB-luciferase reporter, PD-L1 expressing CHO cells, 6h, + HSA", "setting": "[4]", "result": 0.112, "unit": "µg/mL"},
      {"measurement": "IC50, NFAT-luciferase reporter gene assay, with HSA", "setting": "human PD-L1 on cells", "result": 0.665, "unit": "µg/mL"}
    ]}
  ]
}
